B1: MYBL2 (parent)
chain: VKKSCWTEEEDRIICEAHKVLGNR
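Note: lentivirally expressed fusions sorted by FACS into six bins by GFP to DsRed ratio, PSI derived from sequencing read proportions per bin multiplied by bin number.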

In the data set the parent is B1. As to the kind of experiment: protein stability index of a GFP-peptide fusion (GPS, HEK-293T) (PSI 1-6); higher = more stable. The conditions noted are these: c terminus: a fixed tail appended.
In the case of VKKSFWTEEEDRIICEAHKVLGNR [C5F], the protein stability index came out at 3.22.

For the variant VKKSYWTEEEDRIICEAHKVLGNR [C5Y], the protein stability index came out at 3.47.

For VKKSEWTEEEDRIICEAHKVLGNR [C5E], the protein stability index turned out to be 4.19.

Turning to VKKSHWTEEEDRIICEAHKVLGNR [C5H], the protein stability index turned out to be 3.63.

For the variant VKKSVWTEEEDRIICEAHKVLGNR [C5V], the protein stability index amounted to 3.31.

For the variant VKKSAWTEEEDRIICEAHKVLGNR [C5A], the protein stability index is 3.47.

As for VKKSRWTEEEDRIICEAHKVLGNR [C5R], the protein stability index was 3.88.

Consider VKKSCWTEEEQRIICEAHKVLGNR [D11Q], for which the protein stability index came to 3.

As to VKKSCWTEEEHRIICEAHKVLGNR [D11H], the protein stability index amounted to 3.57.

With VKKSCWTEEEARIICEAHKVLGNR [D11A], the protein stability index turned out to be 2.95.

On to VKKSCWTEEEGRIICEAHKVLGNR [D11G], for which the protein stability index stood at 3.01.

For the variant VKKSCWTEEETRIICEAHKVLGNR [D11T], the protein stability index is 2.83.

On to VKKSCWTEEEMRIICEAHKVLGNR [D11M], for which the protein stability index stood at 2.12.

For the variant VKKSCWTEEEVRIICEAHKVLGNR [D11V], the protein stability index came to 3.39.

As to VKKSCWTEEELRIICEAHKVLGNR [D11L], the protein stability index came out at 2.21.

Turning to VKKSCWTEEEERIICEAHKVLGNR [D11E], the protein stability index stood at 3.43.

In the case of VKKSCWTEEECRIICEAHKVLGNR [D11C], the protein stability index stood at 2.53.

Consider VKKSCWTEEEKRIICEAHKVLGNR [D11K], for which the protein stability index was found to be 2.74.

For the variant VKKSCWTEEEIRIICEAHKVLGNR [D11I], the protein stability index stood at 1.71.

On to VKKSCWTEEEYRIICEAHKVLGNR [D11Y], for which the protein stability index was determined as 2.38.

In the case of VKKSCWTEEEFRIICEAHKVLGNR [D11F], the protein stability index amounted to 1.59.

As for VKKSCWTEEERRIICEAHKVLGNR [D11R], the protein stability index amounted to 2.85.

Turning to VKKSCWTEEEPRIICEAHKVLGNR [D11P], the protein stability index was determined as 2.76.

As for VKKSCWTEEESRIICEAHKVLGNR [D11S], the protein stability index is 2.8.

Turning to VKKSCWTEEEWRIICEAHKVLGNR [D11W], the protein stability index amounted to 2.42.

On to VKKSCWTEEENRIICEAHKVLGNR [D11N], for which the protein stability index was determined as 3.72.

For the variant VKTSCWTEEEDRIICEAHKVLGNR [K3T], the protein stability index was 2.76.

With VKMSCWTEEEDRIICEAHKVLGNR [K3M], the protein stability index is 2.78.

For VKYSCWTEEEDRIICEAHKVLGNR [K3Y], the protein stability index came out at 2.76.

As for VKSSCWTEEEDRIICEAHKVLGNR [K3S], the protein stability index was 3.12.

With VKISCWTEEEDRIICEAHKVLGNR [K3I], the protein stability index amounted to 2.4.

As to VKPSCWTEEEDRIICEAHKVLGNR [K3P], the protein stability index was 3.14.

In the case of VKLSCWTEEEDRIICEAHKVLGNR [K3L], the protein stability index turned out to be 2.49.

With VKWSCWTEEEDRIICEAHKVLGNR [K3W], the protein stability index was 2.21.

In the case of VKNSCWTEEEDRIICEAHKVLGNR [K3N], the protein stability index was found to be 2.78.

With VKRSCWTEEEDRIICEAHKVLGNR [K3R], the protein stability index amounted to 3.3.

Take VKQSCWTEEEDRIICEAHKVLGNR [K3Q]: the protein stability index turned out to be 3.27.

VKVSCWTEEEDRIICEAHKVLGNR [K3V]: the protein stability index stood at 2.52.

In the case of VKKSCWTEREDRIICEAHKVLGNR [E9R], the protein stability index was 2.58.

VKKSCWTEYEDRIICEAHKVLGNR [E9Y]: the protein stability index turned out to be 2.16.

For the variant VKKSCWTELEDRIICEAHKVLGNR [E9L], the protein stability index came to 2.98.

For the variant VKKSCWTEQEDRIICEAHKVLGNR [E9Q], the protein stability index was 3.45.

With VKKSCWTEDEDRIICEAHKVLGNR [E9D], the protein stability index was 3.34.

Regarding VKKSCWTEPEDRIICEAHKVLGNR [E9P], the protein stability index worked out at 2.82.

For VKKSCWTEHEDRIICEAHKVLGNR [E9H], the protein stability index stood at 2.69.

As for VKKSCWTETEDRIICEAHKVLGNR [E9T], the protein stability index turned out to be 3.28.

For VKKSCWTECEDRIICEAHKVLGNR [E9C], the protein stability index turned out to be 2.6.

As for VKKSCWTENEDRIICEAHKVLGNR [E9N], the protein stability index amounted to 3.3.

Consider VKKSCWTEMEDRIICEAHKVLGNR [E9M], for which the protein stability index amounted to 2.1.

For VKKSCWTEGEDRIICEAHKVLGNR [E9G], the protein stability index stood at 2.8.

Consider VKKSCWTEIEDRIICEAHKVLGNR [E9I], for which the protein stability index was found to be 2.57.

On to VKKSCWTESEDRIICEAHKVLGNR [E9S], for which the protein stability index came to 2.66.

In the case of VKKSCWTEKEDRIICEAHKVLGNR [E9K], the protein stability index worked out at 3.37.

Take VKKSCWTEWEDRIICEAHKVLGNR [E9W]: the protein stability index came out at 2.35.

For the variant VKKSCWTEAEDRIICEAHKVLGNR [E9A], the protein stability index was found to be 2.59.

For VKKSCWTEVEDRIICEAHKVLGNR [E9V], the protein stability index came out at 2.45.

Take VKKSCWTEFEDRIICEAHKVLGNR [E9F]: the protein stability index was 2.31.

For the variant VKKSCWTEEEDEIICEAHKVLGNR [R12E], the protein stability index was 3.48.

On to VKKSCWTEEEDYIICEAHKVLGNR [R12Y], for which the protein stability index came to 3.16.

VKKSCWTEEEDNIICEAHKVLGNR [R12N]: the protein stability index turned out to be 3.7.

For the variant VKKSCWTEEEDFIICEAHKVLGNR [R12F], the protein stability index was found to be 3.1.

In the case of VKKSCWTEEEDVIICEAHKVLGNR [R12V], the protein stability index came to 3.28.

On to VKKSCWTEEEDHIICEAHKVLGNR [R12H], for which the protein stability index is 3.55.

As for VKKSCWTEEEDIIICEAHKVLGNR [R12I], the protein stability index worked out at 3.38.

As for VKKSCWTEEEDTIICEAHKVLGNR [R12T], the protein stability index is 3.2.

Regarding VKKSCWTEEEDPIICEAHKVLGNR [R12P], the protein stability index stood at 3.38.

In the case of VKKSCWTEEEDLIICEAHKVLGNR [R12L], the protein stability index was 2.87.

Regarding VKKSCWTEEEDDIICEAHKVLGNR [R12D], the protein stability index came out at 3.15.

As for VKKSCWTEEEDQIICEAHKVLGNR [R12Q], the protein stability index was found to be 3.62.

On to VKKSCWTEEEDAIICEAHKVLGNR [R12A], for which the protein stability index amounted to 3.29.

With VKKSCWTEEEDKIICEAHKVLGNR [R12K], the protein stability index turned out to be 4.05.

As for VKKSCWTEEEDWIICEAHKVLGNR [R12W], the protein stability index was 2.22.

With VKKSCWTEEEDGIICEAHKVLGNR [R12G], the protein stability index stood at 3.58.

As for VKKSCWTEEEDCIICEAHKVLGNR [R12C], the protein stability index amounted to 2.17.

For VKKSCWTEEEDSIICEAHKVLGNR [R12S], the protein stability index is 3.25.

For VKKSCWTEEQDRIICEAHKVLGNR [E10Q], the protein stability index was determined as 3.26.

With VKKSCWTEENDRIICEAHKVLGNR [E10N], the protein stability index amounted to 3.21.

In the case of VKKSCWTEEGDRIICEAHKVLGNR [E10G], the protein stability index turned out to be 3.15.

VKKSCWTEEVDRIICEAHKVLGNR [E10V]: the protein stability index was found to be 2.13.

Consider VKKSCWTEEIDRIICEAHKVLGNR [E10I], for which the protein stability index turned out to be 2.39.

In the case of VKKSCWTEELDRIICEAHKVLGNR [E10L], the protein stability index stood at 2.06.

On to VKKSCWTEEPDRIICEAHKVLGNR [E10P], for which the protein stability index was 2.99.

For the variant VKKSCWTEEADRIICEAHKVLGNR [E10A], the protein stability index worked out at 2.38.

For VKKSCWTEESDRIICEAHKVLGNR [E10S], the protein stability index amounted to 2.96.

Take VKKSCWTEEDDRIICEAHKVLGNR [E10D]: the protein stability index turned out to be 3.1.

For the variant VKKSCWTEEHDRIICEAHKVLGNR [E10H], the protein stability index was found to be 3.08.

Consider VKKSCWTEERDRIICEAHKVLGNR [E10R], for which the protein stability index was 2.65.

For the variant VKKSCWTEECDRIICEAHKVLGNR [E10C], the protein stability index was 2.27.

Consider VKKSCWTEEYDRIICEAHKVLGNR [E10Y], for which the protein stability index was determined as 2.28.

As to VKKSCWTEEFDRIICEAHKVLGNR [E10F], the protein stability index was 1.99.

Take VKKSCWTEETDRIICEAHKVLGNR [E10T]: the protein stability index was found to be 2.47.

For the variant VKKSCWTEEKDRIICEAHKVLGNR [E10K], the protein stability index was 2.99.

As for VKKSCWTEEWDRIICEAHKVLGNR [E10W], the protein stability index worked out at 1.78.

For VKKSCWTEEMDRIICEAHKVLGNR [E10M], the protein stability index was determined as 1.99.

The record behind these values is the supplement of paper PMC10567573.
